The data set is described as follows: label from the status in PepcDB records.
For the sequence “MAETAETINTTISSPPPESESSTTISAMTDPTSQEAASKDTDLTKEAESEKKPGGISLRIWPPTQKTRDAVLNRLIETLSTESILSKRYGTLKSDDATTVAKLIEEEAYGVASNAVSSDDDGIKILELYSKEISKRMLESVKARSNASVGNGSVEDANTDASEVSKDDAGPASEEEKSEA”, the protein production entry is on record as “failed”. For “MAEYEDRYWTSSDGLRLHFRAYEGDISRPPVLCLPGLTRNARDFEDLATRLAGDWRVLCPEMRGRGDSDYAKDPMTYQPMQYLQDLEALLAQEGIERFVAIGTSLGGLLTMLLAAANPARIAAAVLNDVGPEVSPEGLERIRGYVGQGRNFETWMHAARALQESSGDVYPDWDITQWLRYAKRIMVLGSSGRIAFDYDMKIAEPFEAPVGATPQVDMWPLFDALATRPLLVLRGETSDILSAQTAAKMASRPGVELVTLPRIGHAPTLDEPESIAAIGRLLERV”, the protein production entry was “not failed”.

Consider “MAFCSLEKRHAILDWPQLQLTNGSGRCSGRVEVYYHGQWGRVCDDQWDLREADVVCRQLNCGDALEAPVQARFGDGPGEFLLDEMDCTGTESFLGQCPHAGWHLHNCGSGEDASVICEGNGEELVARPQVLPVADPVPGSRRAHVPRLSLNGADMSPDPTPVIDPDPESSKPSGDWAPVRLSGNHGSCAGRVELFYQGVWGTVCDDLWDLTEANIICRQLGCGRAVSALSEAYFGQGSGKILLDNVHCKGHEEHLEECSHLGWFSHNCDHSEDASVICSDAEYGMATLSDHPLAVMEGAMNPEKSRCGGVITKAPGKIKNPPMNEMHDNITCVWEIRANTSDRIRLAFPSLDLDCTNEYFEILDGPPSSVKSLGKPCRGLHVTFASHSNSMTLVYFRGENNIGKNFMAYYYFEAKEVTTKTPYLITIPTATSKMVTERPQFSKPAQPTHTPSGNVSPLPVPDSGDWPELRLVGGSNRCSGRVEILYQGVWGTVCDDLWDLNEAEVVCRQLECGQAVSSLGEAYFGPGSGDIFLDNLQCSGLEHYLSQCPHSGWSEHNCGHHEDAGVICSDSGAPPPPMPPGPPPTSQDPLTGGSNSCGGVISSLSGSFTSPQYPENYPTDIQCVWEIHVEKNFRIELMIPNLNLEDILGCPYDSVEIFDGPRIPSLSMGKFCAPSAVVFFSSSDILTVVFRSDYMTTNTGFYAFFNAIPQDGKESEERPVLRLAGSSGQCSGRVEILHQGAWGTVCDDLWDLNEAEVVCRQLGCGHAIAAPGSAYFGPGSGNILLDNIQCSGKENHFGQCSSSAWLDHNCGHHEDAGVICSDAEVTPSPTEGSQSCGGVISSLSGSFSSPWYPTNYPTDTECIWEIHVAEKFNIELTIPSLK”, for which the protein production entry is listed as “failed”. In the case of “MAFDGCCPDCKLPGDDCPLIWGACNHAFHLHCILKWVNSQTSQAHCPMCRREWQFKE”, the protein production result is reported as “failed”.

For “MAFGSFARSGGSSRFLFTAGRMAQQLTVSIGQASSPGRKPVNQDFYGALIPAEPLLITKGIALALADGISSSDISQVASESAVKSFLTDYYCTSEAWSVKSSAQRVIAATNSWLHAETRRSDYRYDRDKGYVCTLSALVIKGAAAHLFHIGDSRIYRLAGASLEQLTEDHRVRLSAEQSYLGRALGVNPQVEIDYLSVPIGSGDLFVLATDGVYEHVAHRFVVQTLRDHGDDLDAAARAIVGEAFNNGSDDNLTVQVVRIESVPGADSIDLFERVAELPLPPLLEPRAEFDGYRIIRELHGSSRSHIYLASDLATGELVVLKIPSADLRDDPEYRKRFMLEEWAARRIDSPHVLKPCVVQRPRSYLYVTFEYIEGQTLAQWMIDHPRAELETVRGLIEQIAKGLYAFHRKEMVHQDLRPANVLIDRSGTVKIIDFGSVRVAGVAELGPAGGDELLGTVQYMAPEYFAGQGGSALSDQFSLGVIAYQMLTGRLPYGAELARANQALKSRKLRYSAAADHNAKVPVWVDRALQRAVSLDPAKRYPALSEFVHDLRHPRADYLDARPQPLAARNPLLFLQLLSALLALIVVGLLARLHGSI”, the protein production entry was “failed”. Turning to “MAFTKIIFKNPNTGAIKEAPVGFSWTVFFFGFIPALFRADWKWAAIMFLLAMFTFGLSNLVFMFIYNKLYVRDLIGAGFKAQSIASGDLNFASSRIGMEIPRLEAA”, the protein production result is recorded as “failed”. Consider “MAGAAHRLMEARMRRYDNKFARISDIDINQPESWRGRIFLTFDIDWAADFVLQDTIDLIEGAGVCATWFATHSTPLLENIRRNPLFELGVHPNFNPLLAGAHAEGVQEILDRTLELAPGCVSVRSHSLVQATSILNMFGERRLRYDCNILVPWDAGIVLQPWRHWTGDMVRVPYLWEDDVACLYDWEFDSTFDYWYQPDGINVLDFHPIHVYMNTESLRRYEDSREVHRNPVDLIRWRNTSAGSRTFLQSLLARNI”, for which the protein production result is recorded as “not failed”. For the sequence “MAGAPGPLRLALLLLGMVGRAGPRPQGATVSLWETVQKWREYRRQCQRSLTEDPPPATDLFCNRTFDEYACWPDGEPGSFVNVSCPWYLPWASSVPQGHVYRFCTAEGLWLQKDNSSLPWRDLSECEESKRGERSSPEEQLLFLYIIYTVGYALSFSALVIASAILLGFRHLHCTRNYIHLNLFASFILRALSVFIKDAALKWMYSTAAQQHQWDGLLSYQDSLSCRLVFLLMQYCVAANYYWLLVEGVYLYTLLAFSVLSEQWIFRLYVSIGWGVPLLFVVPWGIVKYLYEDEGCWTRNSNMNYWLIIRLPILFAIGVNFLIFVRVICIVVSKLKANLMCKTDIKCRLAKSTLTLIPLLGTHEVIFAFVMDEHARGTLRFIKLFTELSFTSFQGLMVAILYCFVNNEVQLEFRKSWERWRLEHLHIQRDSSMKPLKCPTSSLSSGATAGSSMYTATCQASCS”, the protein production result is on record as “failed”. For the sequence “MAGAQPGVHALQLEPPTVVETLRRGSKFIKWDEETSSRNLVTLRVDPNGFFLYWTGPNMEVDTLDISSIRDTRTGRYARLPKDPKIREVLGFGGPDARLEEKLMTVVSGPDPVNTVFLNFMAVQDDTAKVWSEELFKLAMNILAQNASRNTFLRKAYTKLKLQVNQDGRIPVKNILKMFSADKKRVETALESCGLKFNRSESIRPDEFSLEIFERFLNKLCLRPDIDKILLEIGAKGKPYLTLEQLMDFINQKQRDPRLNEVLYPPLRPSQARLLIEKYEPNQQFLERDQMSMEGFSRYLGGEENGILPLEALDLSTDMTQPLSAYFINSSHNTYLTAGQLAGTSSVEMYRQALLWGCRCVELDVWKGRPPEEEPFITHGFTMTTEVPLRDVLEAIAETAFKTSPYPVILSFENHVDSAKQQAKMAEYCRSIFGDALLIEPLDKYPLAPGVPLPSPQDLMGRILVKNKKRHRPSAGGPDSAGRKRPL”, the protein production entry is “failed”. Turning to “MAGASLFTLLDDIATLLDDVSILTKVAAKKTAGVLGDDLALNAQQVTGVTADRELPVVWAVAKGSLVNKVILVPAALAISALEAWLRGRGYNVPLVMPLMMIGGAYLCFEGVEKLAHKFLHSEEEDAQRHAERTRVLADEAVDVVALEKDKVKGAIRTDFILSAEIIVLSLGVVAGVSFGQQVAVLVAIALAMTIGVYGLVAGIVKLDDLGLYLSKKGAALAALGRGILVAAPWLMKFLSVAGTLAMFLVGGGILVHNIPTLHHLVVDLAKASGSLGWLVEALGNMLVGVVAGAVVLAAVTGFQKLRGNRPRTDSVQSLRRQAKSRTG”, the protein production entry is recorded as “failed”.

Take “MAGAYLHIPFCEHICYYCDFNKVFIEGQPVDDYVAMLLKEMRMVMAEHPEEKIQTVYVGGGTPSTLTPTQLATLCQGIHDILHFDQGEFTFEANPNDLLTTEKLQVLHDYGVNRLSIGVQSFNDDVLRRIGRIHRAKDVYTAIANARQVGFDNISIDLIFRLPDQSRDDFLTSLQKALALDLPHYSTYSLILERKTIFYNLMRQGKLRLPTQDVEADMYQDAIDLMEAHGRHQYEISNFAKDGYQCEHNLLYWRNDKYFGFGAGAFGYLGRDRYHNYGPIKQYLTPLHADHLPVLEHHLVPQSEQIEEEMFLGLRTMQGVSEARFYDRYHMTVDAIYGETVPELVSQGLVVRQDGYIRLTNKGKFLGNEVFQRFLIDEPLVLEHHHHHH”: the protein production entry is recorded as “not failed”. Consider “MAGCRTNAKGNAMPISIRIGNQDLTVDVSSLGAEMQALTSGDGRSWLWTGDAAFWTGRSPILFPIVGKAPDDKIAIDGTVYPMAQHGFARRSEFALAASTETMCRFELAASEATRAVYPFDFQLAVVHAVEGRALTVTAEVTNRDPKPMPFGLGFHSAFAWPLPGASGRDHIVTLDNKGEPALVRLEGGLINPAPLPSPFNAGRLVLDHSMFEQDAMIFPDGAGEGLAYGSEGGPAMRFHFKNLPNLALWTKPGAPFLCIEPWHGTAAEAGASSELSKRPSTTILAPGAVASFAFTVEIPQ”, for which the protein production entry is on record as “failed”.

Turning to “MAGKRKSRRGFGRVRKLPSGRFQARYPGPDGVLRPADRTFATTTDADRWLMRKRIEIEEGCWLDPAEGQTTVRDWAARWLAAVSPQLKHKTQASYRSLINSLINPVLGDRELSSLRPITVTEWVGAMRTKGLSASRIRQAYRVLSQIMRSAVDNDMIPQTPCRGVRLPRMPQTEPHILTPLEASRIVKGATKPHDLLIALLAYAGLRVGEAFALRRVDVDVSGGFVLVDENLAEANGVLVFDTPKSHQKRLLRVGPSLAKRLGRHLETLPGGDDALLFTTPGGKPLRYNQWRKAYFDPAVSAAGLTDVTPHDLRASHGTWVADRYGVMTAAHRLGHSNASVTTRHYARPVAGRDDQVAEAADSWLSGSEDNDDGSAAVPA”, the protein production entry was “failed”.

As for “MAGLSTAELVDIALEMAEMRTLPADSAVYVESTDLKRVMMGIDIGPAELLLARQLGCDGVIAHHPAGGSATLNFPEVLTRHVELMVEHGVPATAARDAIQGLLTRSLLRAQSANHDHTPSVARLLEMPFLNIHLPLDEVGRRIMVKTIQEAVEPLGDEARVQDAIDALMTLPEFAGAATRIMVPVGAVDQPLGKIAVVHGAGTNGGYAVARAYFDHGVRTVLYIHIAPEEAERLRREGGGNLIVTGHIASDLVGINRYVQALEERGVEVVRMSGL”, the protein production entry was “not failed”. Regarding “MAGNAPLQQVQKKWAECQYSTPDGDEKEQCFHRAIAKTSIYLDREPGNPELTVWLAINKASLAGAQGGFGALSLAKEAKSLLEGVIATSPQTLDGSAYTSLGSLYYKVPGWPIGFGDDDKAEEMLKKALEINPKGIDPNYFYGDFLAEEGRDKEAKVYLTRAMQASPRPDRPLADKGRKLEIEATLGRLKLEHHHHHH”, the protein production entry is listed as “not failed”.

With “MAGRRLIIGDVHGHYRSLYRLLELADPDTDDQVYCLGDLIDRGPDSAKVVALVRSQGYTSLMGNHEHLLSQVLAFPDLSELRLHWFQAGGQATLASFGSWEALEELRPWLQQLPLYLDLGEIWLVHAGVDPDLPLSRQDANEFCWIRDQFLARSQPFFANKTILVGHTITCTMAGIQPGYVAAGAGWLGLDTGVYHPRSGWLTALDWDNQRVFQVQAQSNETRVCDLAERLQTVLSNPAKGRRSLLRYPRDQVSPS”, the protein production result is “failed”.

Turning to “MAGTTEITTKPERVVVLDTGELDSVLSLGITPVGMTTTKGANPVPSYLADKVKDVERVGTINELNIEAIAALKPDLIIGSQLRADKLYPQLSDIAPTVFSIRPGSPWKENFLLVGEALGMEKEAEEKLNEYADRVAELKNNVPQNTEVSLVRFMPNKLRLYGNKSLIGVVLADAGLARPEKQNVDDLAVEISPENIDQAAGSVIFYTSYGKPDATGETAVVEGPAWKNLEAVAAGKAHRVNDDVWFLGLGPTGAMEIVSDLHDYLLEHHHHHH”, the protein production result was “not failed”.

Take “MAHATPPSALEQGGPIRVEHDRQRRQFSVRLNGCHDRAVLLYEYVGKRIVDLQHTEVPDAYRGRGIAKHLAKAALDFVVEEDLKAHLTCWYIQKYVKENPLPQYLERLQP”: the protein production result was “failed”.

The record behind these values is a protein production outcome set (Wang et al. 2014).
